The record followed here is patent US20200325214A1.

Assay [1] addresses human serum albumin (human) (UniProt P02768). As to the kind of experiment: SPR, scDb, pH 5.5.
For assay [2], the target named is cynomolgus serum albumin (cynomolgus) (UniProt A2V9Z4). In words: SPR, scDb, pH 5.5.
Assay [3] addresses human serum albumin (human) (UniProt P02768). In words: SPR, scDb, pH 7.4.
Assay [4] addresses cynomolgus serum albumin (cynomolgus) (UniProt A2V9Z4). As to the kind of experiment: SPR, scDb, pH 7.4.

B1: PRO480 (bispecific antibody, part only; not given: second specificity domains and linkers, V domains shown, not shown: another chain or arm of the molecule)
VL: DVVMTQSPSSLSASVGDRVTITCQASQIISSRSAWYQQKPGQPPKLLIYQASKLASGVPSRFSGSGSGTDFTLTISSLQPEDFATYYCQCTYIDSNFGAFGGGTKLTVLG
VH: EVQLVESGGGLVQPGGSLRLSCAASGFSFSSSYWICWVRQAPGKGLEWVGCVFTGDGTTYYASWAKGRFTISRDNSKNTVYLQMNSLRAEDTATYFCARPVSVYYYGMDLWGQGTLVTVSS
On to B1, for which the Kd is 2.3 nM in assay [1], 4.82 nM in assay [2] and 3.36 nM in assay [3]. In addition, the koff came to 0.000173 s⁻¹ in assay [1], 0.000373 s⁻¹ in assay [2], 0.000235 s⁻¹ in assay [3] and 0.000549 s⁻¹ in assay [4]. Besides, the kon in assay [1] came out at 75000 M⁻¹ s⁻¹; in assay [2], 77600 M⁻¹ s⁻¹; in assay [3] it was 70100 M⁻¹ s⁻¹; in assay [4], 57000 M⁻¹ s⁻¹.

B2: PRO462 (bispecific antibody, part only; not given: second specificity domains and linkers, V domains shown, not shown: another chain or arm of the molecule)
VL: DIQMTQSPSSLSASVGDRVTITCQSSESVYSNNQLSWYQQKPGQPPKLLIYDASDLASGVPSRFSGSGSGTDFTLTISSLQPEDFATYYCAGGFSSSSDTAFGGGTKLTVLG
VH: EVQLVESGGGLVQPGGSLRLSCAASGFSLSSNAMGWVRQAPGKGLEYIGIISVGGFTYYASWAKGRFTISRDNSKNTVYLQMNSLRAEDTATYFCARDRHGGDSSGAFYLWGQGTLVTVSS
On to B2, for which the figures for the Kd in assay [1], in assay [2] and in assay [3] were 0.371 nM, 0.175 nM and 0.728 nM, respectively. Further, the koff amounted to 0.000333 s⁻¹ in assay [1], 0.000175 s⁻¹ in assay [2], 0.000345 s⁻¹ in assay [3] and 0.000221 s⁻¹ in assay [4]. Besides, the kon is 897000 M⁻¹ s⁻¹ in assay [1], 1e+06 M⁻¹ s⁻¹ in assay [2], 474000 M⁻¹ s⁻¹ in assay [3] and 630000 M⁻¹ s⁻¹ in assay [4].
